In this test the target is CNTF receptor expressed on TF-1.CN5a.1 (ATCC CRL-2512) cells (UniProt P26992). Description: cell-based or functional assay.
Sequence of UniProt P26992 (P26992 23-342 limits assumed): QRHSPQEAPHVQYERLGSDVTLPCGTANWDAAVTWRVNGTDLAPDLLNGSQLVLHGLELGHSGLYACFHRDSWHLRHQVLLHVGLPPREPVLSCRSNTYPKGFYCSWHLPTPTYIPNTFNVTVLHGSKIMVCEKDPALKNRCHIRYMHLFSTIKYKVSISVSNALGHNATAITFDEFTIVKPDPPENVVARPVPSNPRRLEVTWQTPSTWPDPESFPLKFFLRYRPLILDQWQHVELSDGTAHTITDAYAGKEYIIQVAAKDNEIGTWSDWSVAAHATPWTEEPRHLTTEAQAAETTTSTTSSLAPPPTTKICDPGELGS

“CNTF control protein (Life Technologies) (ligand)”: the EC50, TF-1.CN5a.1 cell proliferation turned out to be 0.11 pM.
